Assay results taken from the RNAGym collection of RNA variant scans (doi:10.7554/elife.80360).

B1: HDV Ribozyme (parent)
chain: GGCCGGCAUGGUCCCAGCCUCCUCGCUGGCGCCGGCUGGGCAACAUUCCGAGGGGACCGUCCCCUCGGUAAUGGCGAAUGGGACCCA

Variants of: B1
Assay: self-cleavage, relative activity (ratio to wild type); higher = more cleavage; co-transcriptional

Point of comparison: C19G G76A, self-cleavage 0.0545. Against it:
- C19U G34A — lower, 0.0468
- C19G U69G — higher, 0.102
- U20G G35U — lower, 0
- U20G G35A — higher, 0.107
- U20C C30G — higher, 0.447
- U20A C48U — lower, 0
- C19U G55U — higher, 0.0573
- C19G A78U — higher, 0.0773
- U20C G54C — lower, 0.0475
- C21G A78U — higher, 0.196
- C19U G59A — higher, 0.145
- U20C C21G — lower, 0
- C21A G35U — higher, 0.0744
- U20A G31A — higher, 0.155
- C21G G54C — lower, 0.0264
- U20A G35A — higher, 0.158
- U20A G35U — lower, 0.0437
- U20A G35C — higher, 0.122
- U20G G74C — lower, 0.0489
- U20G G29C — lower, 0
- U20G G29U — lower, 0
- U20G G40U — higher, 0.131
- U20G G40C — lower, 0.0462
- C19U G38A — higher, 0.0875
- U20A G82A — higher, 0.0739
- C19U G74U — higher, 0.0762
- C19U G67C — higher, 0.0715
- U20G U60G — higher, 0.0831
- C21A U69A — higher, 0.175
- C19G U23C — lower, 0
- C21A C22U — higher, 0.138
- U20C C64U — higher, 0.244
- C19G G35A — lower, 0.0297
- U20C C86A — higher, 0.158
- U20G U47A — higher, 0.0831
- U20C C36G — higher, 0.111
- C19G C66U — higher, 0.0639
- C21A G34C — lower, 0
- C21G C48U — higher, 0.0707
- U20G A45C — higher, 0.158
- U20A C85G — higher, 0.107
- U20C C44A — lower, 0
- C21G G25A — higher, 0.185
- U20G G25A — lower, 0
- C21A C75G — lower, 0.0346
- C21A G38C — higher, 0.185
- U20C G35U — higher, 0.0978
- C19G G39C — higher, 0.0978
- U20C U47G — lower, 0
- U20G G68A — lower, 0.0378
- C19U A43G — the same, 0.0545
- C19G C49U — lower, 0.0326
- U20G C62U — higher, 0.19
- U20G C62A — higher, 0.312
- C21A C44U — lower, 0.0346
- U20G G53A — higher, 0.148
- U20G G50A — higher, 0.151
- U20A C61A — higher, 0.111
- U20A G73U — lower, 0.0354
- U20A G73C — higher, 0.0615
- C19G C48G — higher, 0.148
- C21A A45C — higher, 0.0652
- C21A A45G — higher, 0.0615
- C21A U79C — higher, 0.111
- C21A G81U — higher, 0.0665
- C19G G80U — higher, 0.0902
- C21A G40C — higher, 0.111
- U20C C63A — higher, 0.0898
- C19U C30U — higher, 0.0608
- C19G G67C — lower, 0.0287
- U20C U37C — higher, 0.252
- U20A C66U — higher, 0.0773
- U20C A42C — higher, 0.158
- C19G G68A — lower, 0.021
- U20C U60G — higher, 0.199
- C21G A70C — higher, 0.225
- C21G A70G — higher, 0.185
- C19U U20C — higher, 0.145
- C19G G28C — higher, 0.912
- C19G A43G — higher, 0.155
- C21A C41U — higher, 0.181
- C21A C41G — lower, 0
- U20C C62G — higher, 0.0665
- U20G U46C — higher, 0.185
- C21A G25C — lower, 0
- C21A G25A — higher, 0.116
- C21G G28U — lower, 0.0287
- C19G U37A — higher, 0.0627
- U20G C63G — higher, 0.104
- C19U G29A — higher, 0.102
- C19U C21A — higher, 0.0573
- U20G A87U — higher, 0.158
- C19U C33A — higher, 0.0665
- C19G C75U — higher, 0.161
- C19G G74A — higher, 0.161
- C19G G54C — lower, 0.0489
- C19U C86G — higher, 0.116
- C19U C86A — higher, 0.194
- C19U C86U — higher, 0.122
- C21A G54C — higher, 0.0804
- C21A A77U — lower, 0
- C21A A77C — lower, 0
- C19U A77G — higher, 0.253
- U20C C84G — higher, 0.0978
- U20C C84A — higher, 0.166
- C19U C61A — higher, 0.243
- U20G A78G — lower, 0
- U20A U27C — lower, 0
- C21A C85A — lower, 0
- C21A C85U — higher, 0.157
- C21A C85G — lower, 0
- U20C U23A — higher, 0.115
- C21G G53C — higher, 0.0978
- C19G G31U — higher, 0.0723
- C19G A51U — higher, 0.0678
- C19U A70C — higher, 0.0906
- C19U A70G — higher, 0.141
- U20G C84G — higher, 0.119
- C19U C57G — higher, 0.089
- C19U C57U — higher, 0.165
- C21A C26U — lower, 0
- C21G A77U — lower, 0.0426
- U20G U65G — higher, 0.437
- U20A C22A — higher, 0.0898
- U20G G52U — higher, 0.332
- C19U G25C — lower, 0.0489
- C19U G25U — higher, 0.188
- C21A C36G — higher, 0.0627
- C21A C36U — lower, 0.0339
- U20C G67U — higher, 0.175
- U20C G55C — higher, 0.0791
- U20A U37C — lower, 0
- U20G C33U — higher, 0.0852
- U20G A56U — higher, 0.178
- C21G C30A — lower, 0
- U20C C58A — higher, 0.0875
- U20A C63G — lower, 0
- C21A A42U — higher, 0.208
- U20G C30A — lower, 0.0378
- C21A G39U — higher, 0.945
- C21A U46A — higher, 0.322
- C19G C32A — lower, 0.0462
- C21A U72A — lower, 0
- C21G C57G — lower, 0.0437
- C19U C36U — lower, 0.0314
- U20A C24A — lower, 0.0415
- U20A C24U — higher, 0.162
- C19U G39C — higher, 0.133
- C21A G52A — higher, 0.132
- C21G C41G — higher, 0.095
- C19U A51U — higher, 0.0923
- U20C U79C — higher, 0.0845
- U20G A51U — higher, 0.332
- C19U A83C — higher, 0.217
- C19G C63U — higher, 0.0978
- U20C A51G — lower, 0
- U20G G80A — higher, 0.0831
- U20G G80U — lower, 0.053
- C19U U72G — lower, 0.0396
- C21A G59A — higher, 0.0936
- C21A G59U — the same, 0.0545
- C19U G76A — higher, 0.197
- C19U C24A — higher, 0.0791
- U20G C36A — lower, 0
- U20C U69G — higher, 0.0639
- C21A C48A — higher, 0.157
